{
  "source": "patent US10253086B2",
  "about": "“CD20 therapies, CD22 therapies, and combination therapies with a CD19 chimeric antigen receptor (CAR)-expressing cell” (Novartis AG, priority 2015, dated 2019)",
  "molecules": {"B1": {"name": "CD22-CD19: bispecific scFv tandem fusion CAR, hCD22-2 and humanized anti-CD19 (104876) (protein)", "scFv": "EVQLQQSGPGLVKPSQTLSLTCAISGDSVSSNSAAWNWIRQSPSRGLEWLGRTYYRSKWYNDYAVSVKSRITINPDTSKNQFSLQLNSVTPEDTAVYYCARDLGWIAVAGTFDYWGQGTLVTVSSGGGGSGGGGSGGGGSQSALTQPASVSGSPGQSITISCTGTSSDVGGYNYVSWYQQHPGKAPKLMIYDVSKRPSGVSNRFSGSKSGNTASLTISGLQAEDEADYYCSSYTSSSLNHVFGTGTKVTVLTGGGGSGGGGSGGGGSGGGGSEIVMTQSPATLSLSPGERATLSCRASQDISKYLNWYQQKPGQAPRLLIYHTSRLHSGIPARFSGSGSGTDYTLTISSLQPEDFAVYFCQQGNTLPYTFGQGTKLEIKGGGGSGGGGSGGGGSQVQLQESGPGLVKPSETLSLTCTVSGVSLPDYGVSWIRQPPGKGLEWIGVIWGSETTYYQSSLKSRVTISKDNSKNQVSLKLSSVTAADTAVYYCAKHYYYGGSYAMDYWGQGTLVTVSS"}, "B2": {"name": "CD19-CD22: bispecific scFv tandem fusion CAR, humanized anti-CD19 (104876) and hCD22-2 (protein)", "scFv": "EIVMTQSPATLSLSPGERATLSCRASQDISKYLNWYQQKPGQAPRLLIYHTSRLHSGIPARFSGSGSGTDYTLTISSLQPEDFAVYFCQQGNTLPYTFGQGTKLEIKGGGGSGGGGSGGGGSQVQLQESGPGLVKPSETLSLTCTVSGVSLPDYGVSWIRQPPGKGLEWIGVIWGSETTYYQSSLKSRVTISKDNSKNQVSLKLSSVTAADTAVYYCAKHYYYGGSYAMDYWGQGTLVTVSSGGGGSGGGGSGGGGSGGGGSEVQLQQSGPGLVKPSQTLSLTCAISGDSVSSNSAAWNWIRQSPSRGLEWLGRTYYRSKWYNDYAVSVKSRITINPDTSKNQFSLQLNSVTPEDTAVYYCARDLGWIAVAGTFDYWGQGTLVTVSSGGGGSGGGGSGGGGSQSALTQPASVSGSPGQSITISCTGTSSDVGGYNYVSWYQQHPGKAPKLMIYDVSKRPSGVSNRFSGSKSGNTASLTISGLQAEDEADYYCSSYTSSSLNHVFGTGTKVTVLT"}, "B3": {"name": "CD22-12: human CD22 CAR, parent of CD22-64 and CD22-65 (protein)", "scFv": "EVQLQQSGPGLVKPSQTLSLTCAISGDSVLSNSDTWNWIRQSPSRGLEWLGRTYHRSTWYDDYASSVRGRVSINVDTSKNQYSLQLNAVTPEDTGVYYCARDRLQDGNSWSDAFDVWGQGTMVTVSSGGGGSGGGGSGGGGSQSALTQPASASGSPGQSVTISCTGTSSDVGGYNYVSWYQQHPGKAPKLMIYDVSNRPSGVSNRFSGSKSGNTASLTISGLQAEDEADYYCSSYTSSSTLYVFGTGTQLTVL"}, "B4": {"name": "NVS 3: human anti-human CD123 clone expressing CAR123-3 (antibody, V domains shown)", "VH": "QVQLVQSGAEVKKPGASVKVSCKASGYIFTGYYIHWVRQAPGQGLEWMGWINPNSGGTNYAQKFQGRVTMTRDTSISTAYMELSGLRSDDPAVYYCARDMNILATVPFDIWGQGTLVTVSS", "VL": "DIQLTQSPSSLSASVGDRVTITCRASQSISSYLNWYQQKPGKAPKLLIYAASSLQSGVPSRFSGSGSGTDFTLTVNSLQPEDFATYYCQQGDSVPLTFGGGTKVEIK"}, "B5": {"name": "NVS 4: human anti-human CD123 clone expressing CAR123-4 (antibody, V domains shown)", "VH": "QVQLQQSGAEVKKSGASVKVSCKASGYTFTDYYMHWLRQAPGQGLEWMGWINPNSGDTNYAQKFQGRVTLTRDTSISTVYMELSRLRSDDTAVYYCARDMNILATVPFDIWGQGTMVTVSS", "VL": "B4 VL with L4M, V75I, N76S"}, "B6": {"name": "IL-7: exogenous recombinant human IL-7 (protein, UniProt P13232 26-177, looked up)", "Interleukin-7": "DCDIEGKDGKQYESVLMVSIDQLLDSMKEIGSNCLNNEFNFFKRHICDANKEGMFLFRAARKLRQFLKMNSTGDFDLHLLKVSEGTTILLNCTGQVKGRKPAALGEAQPTKSLEENKSLKEQKKLNDLCFLKRLLQEIKTCWNKILMGTKEH"}},
  "key": {"CD19 and CD22": {"tested_on": "CD19 and CD22", "assay": "NFAT assay of bispecific CAR19/CAR22 constructs", "assay_type": "cell-based", "procedure": "The bispecific CD19-CD22 and CD22-CD19 constructs described above were tested in an NFAT assay, as described in the Examples below. As controls, an anti-CD19 alone CAR and an anti-CD22 alone CAR were used."}, "[1]": {"molecular_target": "recombinant human CD22-Fc (Homo sapiens, UniProt P20273)", "assay": "Surface expression of CD22 CAR in primary human T-cells (Protein-L, rhCD22-Fc)", "assay_type": "cell-based", "conditions": "day 10, flow cytometry", "procedure": "Primary human T-cells were activated with anti-CD3/antiCD28 stimulatory beads on day 0, followed by lentiviral transduction of specified CAR constructs on day 1. Cells were expanded in vitro until day, 10 at which point they were analyzed by flow cytometry for surface expression of CAR. Two different approaches were utilized to determine surface expression of CAR: Protein-L-biotin followed by streptavidin-PE, and recombinant human CD22-Fc followed by anti-Fc-alexafluor 488. […] CD22 CAR m971 served as a positive control for binding both Protein-L and hrCD22-Fc, and Isotype CAR with no specificity (anti-gH) served as a positive control for Protein-L. T cells expressing no CAR were used as a negative control."}, "CD22": {"tested_on": "CD22", "assay": "NFAT assay of CD22 CAR in JNL cells on antigen-coated plates", "assay_type": "cell-based, human", "procedure": "Several CD22 CAR constructs were functionally validated in an NFAT assay. Briefly the experiments were performed as follows. A lentiviral vector (pELPS) carrying a nucleic acid, encoding a CD22 CAR with a CD22-binding scFv domain was introduced by electroporation into a Jurkat T cell line modified to express luciferase under the control of an NFAT response element (JNL). The cells were cultured and allowed to express the CAR construct. The electroporated cells were applied to a plate coated with the target antigen (CD22). Detection of luciferase signal in the coated plate was indicative of binding activity of the CD22 CAR to its antigen, leading to activation of the T cells and expression of luciferase.\nThe results also indicate that the different scFvs compete with m971 to different extents.\nFIG. 72 is a graph showing the activation (in RLU) of several CD22 CAR-expressing JNL cells including CD22-57, CD22-58, CD22-59, CD22-60, CD22-61, CD22-62, and CD22-63, the scFv sequences of which are provided herein. Three different target proteins (CD22-FL-Fc, CD22-D567-Fc, and CD22-D67) were used to coat the tissue culture plates; a negative control (Fc) was also included. A mesothelin binding CAR (Meso-G07) was used as a negative control. CD22-12 and CD22-53 were used as positive controls. […] Domain mapping was performed on CD22 binding domains. Three different forms of antigens were used: CD22 full-length with all 7 external domains, Domain567 (in which domains 1-4 were deleted) and Domain67 (in which domains 1-5 were deleted). While not wishing to be bound by theory, it appears that the binding of various CD22 clones maps to the epitopes illustrated in FIG. 75.\nTwo scFvs, named CD22-64 and CD22-65, were produced by affinity maturation of hCD22-12. CAR constructs containing these scFvs were tested for activity in an NFAT assay as described above. […] The bars in the figure represent, from left to right, CD22 full length-Fc; CD22 D567-Fc; and an Fc only negative control used for coating of the plates."}, "Raji-Luc and Daudi-Luc": {"tested_on": "Raji-Luc and Daudi-Luc", "assay": "IFN-gamma and IL-2 secretion by CD22 CAR primary T cells", "assay_type": "cell-based, human", "conditions": "E:T 10 to 1, 20-hr co-culture", "procedure": "CD22 CAR constructs were also tested for the ability to promote secretion of IFN-gamma and IL-2. Briefly, transduced primary T cells from healthy donors expressing the different CD22 CARs were co-cultured with the CD22-positive target cells Raji-Luc and Daudi-Luc as well as the negative control K562-Luc. T cells and target cell were cultured in an effector-to-target cell ratio (E:T) of 10 to 1. Supernatants were harvested after 20-hr co-culture. […] Similar results were observed when Nalm6-Luc, Pfeiffer-Luc, and K562-CD22-Luc, and SEM-Luc cells were tested (data not shown). Minimal IFN-gamma secretion was observed when the K562-Luc negative control cell line was tested (bottom panel)."}, "[2]": {"tested_on": "Raji, SEM, K562-hCD22, Daudi, and Nalm6", "assay": "Primary T-cell tumor target killing assay", "assay_type": "cell-based, human", "description": "Primary T-cells activated and transduced as described above were mixed with target cell lines stably expressing luciferase at the ratios indicated (FIG. 20A-20F). […] Untransduced T-cells (UTD) lacked the ability to kill target cell lines."}, "cynomolgus CD123": {"tested_on": "cynomolgus CD123", "assay": "Cross-reactivity of anti-CD123 clones with cynomolgus CD123", "assay_type": "binding", "description": "Their activity was compared against mouse clones 1172 and 1176, comprising the VH and VL domains in a light-to-heavy orientation with a CD8 hinge domain, CD8 transmembrane domain, and 41BB-costimulatory domain. […] 1172 is not."}, "[3]": {"tested_on": "luciferase-expressing mantle cell line (RL luc)", "assay": "RL luc mantle cell lymphoma xenograft, CART19 with exogenous IL-7", "assay_type": "in vivo, NSG mice", "procedure": "Next, the effect of exogenous IL-7 treatment on anti-tumor activity of CART19 cells was assessed in a lymphoma animal model. NSG mice were engrafted with a luciferase-expressing mantle cell line (RL luc) on Day 0 (D0), followed by treatment of CART19 cells on Day 6. The NSG mice were divided into groups, where one group received no CART19 cells, a second group received 0.5×10^6 CART19 cells, a third group received 1×10^6 CART19 cells, and a fourth group received 2×10^6 CART19 cells. Tumor size was monitored by measuring the mean bioluminescence of the engrafted tumors over more than 80 days. […] When comparing the tumor burden of mice that received IL-7 treatment to control, before and after IL-7 treatment, tumor reduction in tumor burden was only seen in the mice that had received IL-7 treatment (FIG. 10C).\nT cell dynamics following IL-7 treatment in the lymphoma animal model was also examined. Human CART19 cells were not detectable in the blood prior to IL-7 treatment. […] The extent of T cell expansion observed in mice receiving the IL-7 also correlated with tumor response. The mouse with the highest number of T cells detected in the blood at peak expansion during IL-7 treatment (mouse #3815) had the most robust reduction in tumor burden (see FIG. 10B). Moreover, the time of peak expansion correlated with the T cell dose injected as baseline. The number/level CD3-expressing cells in the blood were also measured before and after IL-7 treatment."}},
  "note": "Numbering of substitutions follows the chain as printed.",
  "data": [
    {"molecule": "B1", "values": [
      {"measurement": "activity in NFAT assay", "setting": "CD19 and CD22", "value": "active against their targets"}
    ]},
    {"molecule": "B2", "values": [
      {"measurement": "activity in NFAT assay", "setting": "CD19 and CD22", "value": "active against their targets"}
    ]},
    {"molecule": "B3", "values": [
      {"measurement": "surface expression of CAR", "setting": "[1]", "value": "positive surface expression"},
      {"measurement": "activity (see Example 25)", "setting": "CD22", "value": "found to have activity"},
      {"measurement": "antigen binding / activation (RLU) vs m971", "setting": "CD22; with and without m971 scFv competitor", "value": "bind the antigen approximately as well as the m971 positive control"},
      {"measurement": "IFN-gamma secretion", "setting": "Raji-Luc and Daudi-Luc", "value": "induced IFN-gamma secretion"},
      {"measurement": "activity in cell killing and cytokine secretion assays (Example 9)", "setting": "[2]", "value": "activity comparable to m971"},
      {"measurement": "target cell killing", "setting": "[2]; CD22 expressing luciferase target cell lines", "value": "dose-dependent target cell killing"}
    ]},
    {"molecule": "B4", "values": [
      {"measurement": "cross-reactivity against cynomolgus CD123", "setting": "cynomolgus CD123", "value": "cross-reactive against cynomolgus CD123"}
    ]},
    {"molecule": "B5", "values": [
      {"measurement": "cross-reactivity against cynomolgus CD123", "setting": "cynomolgus CD123", "value": "cross-reactive against cynomolgus CD123"}
    ]},
    {"molecule": "B6", "values": [
      {"measurement": "reduction in tumor burden", "setting": "[3]; IL-7 200 ng/mouse i.p. three times weekly from Day 85, mice with suboptimal CART19 response", "value": "1-3 log"},
      {"measurement": "CD3-expressing cells in the blood", "setting": "[3]; after IL-7 treatment vs control mice", "value": "significant increase in CD3+ cells"},
      {"measurement": "numbers of T cells in blood", "setting": "[3]; upon IL-7 treatment", "value": "rapid, but variable increase in the numbers of T cells"}
    ]}
  ]
}
